Data set [1] deals with T1, recombinant double-tagged VWF-A2 peptide.
T1 chain: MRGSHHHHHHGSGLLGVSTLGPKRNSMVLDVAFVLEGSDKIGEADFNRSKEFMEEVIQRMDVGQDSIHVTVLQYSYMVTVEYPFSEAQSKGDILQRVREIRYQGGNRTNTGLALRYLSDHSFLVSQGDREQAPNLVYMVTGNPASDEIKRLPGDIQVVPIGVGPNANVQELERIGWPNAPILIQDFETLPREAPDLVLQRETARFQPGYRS

The target of data set [2] is T2, recombinant single-tagged VWF-A2 peptide.
T2 chain: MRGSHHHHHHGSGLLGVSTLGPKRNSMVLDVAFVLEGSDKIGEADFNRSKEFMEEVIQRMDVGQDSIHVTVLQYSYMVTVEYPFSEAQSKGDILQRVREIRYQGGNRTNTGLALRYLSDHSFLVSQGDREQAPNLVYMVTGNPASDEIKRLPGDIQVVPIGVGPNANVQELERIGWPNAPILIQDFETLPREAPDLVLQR

The values that follow come from patent publication US20050186646.

B1: ADAMTS-13 (protein)
chain: AAGGILHLELLVAVGPDVFQAHQEDTERYVLTNLNIGAELLRDPSLGAQFRVHLVKMVILTEPEGAPNITANLTSSLLSVCGWSQTINPEDDTDPGHADLVLYITRFDLELPDGNRQVRGVTQLGGACSPTWSCLITEDTGFDLGVTIAHEIGHSFGLEHDGAPGSGCGPSGHVMASDGAAPRAGLAWSPCSRRQLLSLLSAGRARCVWDPPRPQPGSAGHPPDAQPGLYYSANEQCRVAFGPKAVACTFAREHLDMCQALSCHTDPLDQSSCSRLLVPLLDGTECGVEKWCSKGRCRSLVELTPIAAVHGRWSSWGPRSPCSRSCGGGVVTRRRQCNNPRPAFGGRACVGADLQAEMCNTQACEKTQLEFMSQQCARTDGQPLRSSPGGASFYHWGAAVPHSQGDALCRHMCRAIGESFIMKRGDSFLDGTRCMPSGPREDGTLSLCVSGSCRTFGCDGRMDSQQVWDRCQVCGGDNSTCSPRKGSFTAGRAREYVTFLTVTPNLTSVYIANHRPLFTHLAVRIGGRYVVAGKMSISPNTTYPSLLEDGRVEYRVALTEDRLPRLEEIRIWGPLQEDADIQVYRRYGEEYGNLTRPDITFTYFQPKPRQAWVWAAVRGPCSVSCGAGLRWVNYSCLDQARKELVETVQCQGSQQPPAWPEACVLEPCPPYWAVGDFGPCSASCGGGLRERPVRCVEAQGSLLKTLPPARCRAGAQQPAVALETCNPQPCPARWEVSEPSSCTSAGGAGLALENETCVPGADGLEAPVTEGPGSVDEKLPAPEPCVGMSCPPGWGHLDATSAGEKAPSPWGSIRTGAQAAHVWTPAAGSCSVSCGRGLMELRFLCMDSALRVPVQEELCGLASKPGSRREVCQAVPCPARWQYKLAACSVSCGRGVVRRILYCARAHGEDDGEEILLDTQCQGLPRPEPQEACSLEPCPPRWKVMSLGPCSASCGLGTARRSVACVQLDQGQDVEVDEAACAALVRPEASVPCLIADCTYRWHVGTWMECSVSCGDGIQRRRDTCLGPQAQAPVPADFCQHLPKPVTVRGCWAGPCVGQGTPSLVPHEEAAAPGRTTATPAGASLEWSQARGLLFSPAPQPRRLLPGPQENSVQSSACGRQHLEPTGTIDMRGPGQADCAVAIGRPLGEVVTLRVLESSLNCSAGDMLLLWGRLTWRKMCRKLLDMTFSSKTNTLVVRQRCGRPGGGVLLRYGSQLAPETFYRECDMQLFGPWGEIVSPSLSPATSNAGGCRLFINVAPHARIAIHALATNMGAGTEGANASYILIRDTHSLRTTAFHGQQVLYWESESSQAEMEFSEGFLKAQASLRGQYWTLQSWVPEMQDPQSWKGKEGT
With B1, in data set [1], the “cleavage of double-tagged VWF-A2 peptide, ELISA (loss of Tag-100 signal)” value is listed as “the specific cleavage activity by ADAMTS-13 on the VWF-A2 peptide was also demonstrated using three different dilutions of partially isolated ADAMTS-13 (275 µg/mL of total protein) (FIG. 5B)” and the “cleavage of double-tagged VWF-A2 peptide, immunoblot” value is listed as “The cleavage of the double-tagged VWF-A2 peptide by ADAMTS-13 was efficiently detected by immunoblotting”. For the same protein, in data set [2], the “cleavage of VWF-A2 protein, immunoblot (16 kDa band)” value was “Healthy plasma (FIG. 2, lane 1), and partially isolated ADAMTS-13 (FIG. 2, lane 3) produced the expected band of 16 kDa”; the “cleavage of recombinant single-tagged VWF-A2 (16 kDa band)” value is “After one hour incubation, proteolysis by plasma from a healthy individual and the partially isolated enzyme produced the expected 16 kD band corresponding to the sequence 1481-1605 of SEQ ID NO:8 plus the 12 amino acid residues from the His-tag”.
